A word on the Kd: it is the constant that tells how readily two partners part at equilibrium. The low end stands for higher affinity, the high end for lower affinity.

These results are taken from patent US20150005238A1 (PAION DEUTSCHLAND, published 2015).

B1: TME with Ala inserted between 386 and 387 (receptor)
chain: CSVENGGCEHACNAIPGAPRCQCPAGAALQADGRSCTASATQSCNDLCEHFCVPNPDQPGSYSCMCETGYRLAADQHRCEDVDDCILEPSPCPQRCVNTQGGFECHCYPNYDLVDGECVEPVDPCFRANCEYQCQPLNQTSYLCVCAEGFAPIPHEPHRCAQMFCNQTACPADCDPNTQASCECPEGYILDDGFICTDIDECENGGFCSGVCHNLPGTFECICGPDSALARHIGTDC
B2: TME with Ala inserted between 387 and 388 (receptor)
chain: CSVENGGCEHACNAIPGAPRCQCPAGAALQADGRSCTASATQSCNDLCEHFCVPNPDQPGSYSCMCETGYRLAADQHRCEDVDDCILEPSPCPQRCVNTQGGFECHCYPNYDLVDGECVEPVDPCFRANCEYQCQPLNQTSYLCVCAEGFAPIPHEPHRCQAMFCNQTACPADCDPNTQASCECPEGYILDDGFICTDIDECENGGFCSGVCHNLPGTFECICGPDSALARHIGTDC
B3: TME with Ala inserted between 389 and 390 (receptor)
chain: CSVENGGCEHACNAIPGAPRCQCPAGAALQADGRSCTASATQSCNDLCEHFCVPNPDQPGSYSCMCETGYRLAADQHRCEDVDDCILEPSPCPQRCVNTQGGFECHCYPNYDLVDGECVEPVDPCFRANCEYQCQPLNQTSYLCVCAEGFAPIPHEPHRCQMFACNQTACPADCDPNTQASCECPEGYILDDGFICTDIDECENGGFCSGVCHNLPGTFECICGPDSALARHIGTDC
B4: TME with Ala inserted between 388 and 389 (receptor)
chain: CSVENGGCEHACNAIPGAPRCQCPAGAALQADGRSCTASATQSCNDLCEHFCVPNPDQPGSYSCMCETGYRLAADQHRCEDVDDCILEPSPCPQRCVNTQGGFECHCYPNYDLVDGECVEPVDPCFRANCEYQCQPLNQTSYLCVCAEGFAPIPHEPHRCQMAFCNQTACPADCDPNTQASCECPEGYILDDGFICTDIDECENGGFCSGVCHNLPGTFECICGPDSALARHIGTDC
B5: TME with deletion of Gln387 (receptor)
chain: CSVENGGCEHACNAIPGAPRCQCPAGAALQADGRSCTASATQSCNDLCEHFCVPNPDQPGSYSCMCETGYRLAADQHRCEDVDDCILEPSPCPQRCVNTQGGFECHCYPNYDLVDGECVEPVDPCFRANCEYQCQPLNQTSYLCVCAEGFAPIPHEPHRCMFCNQTACPADCDPNTQASCECPEGYILDDGFICTDIDECENGGFCSGVCHNLPGTFECICGPDSALARHIGTDC
B6: TME with deletion of Met388 (receptor)
chain: CSVENGGCEHACNAIPGAPRCQCPAGAALQADGRSCTASATQSCNDLCEHFCVPNPDQPGSYSCMCETGYRLAADQHRCEDVDDCILEPSPCPQRCVNTQGGFECHCYPNYDLVDGECVEPVDPCFRANCEYQCQPLNQTSYLCVCAEGFAPIPHEPHRCQFCNQTACPADCDPNTQASCECPEGYILDDGFICTDIDECENGGFCSGVCHNLPGTFECICGPDSALARHIGTDC
B7: TME with deletion of Phe389 (receptor)
chain: CSVENGGCEHACNAIPGAPRCQCPAGAALQADGRSCTASATQSCNDLCEHFCVPNPDQPGSYSCMCETGYRLAADQHRCEDVDDCILEPSPCPQRCVNTQGGFECHCYPNYDLVDGECVEPVDPCFRANCEYQCQPLNQTSYLCVCAEGFAPIPHEPHRCQMCNQTACPADCDPNTQASCECPEGYILDDGFICTDIDECENGGFCSGVCHNLPGTFECICGPDSALARHIGTDC
B8: Recombinant soluble thrombomodulin (Solulin) (receptor)
chain: EPQPGGSQCVEHDCFALYPGPATFLNASQICDGLRGHLMTVRSSVAADVISLLLNGDGGVGRRRLWIGLQLPPGCGDPKRLGPLRGFQWVTGDNNTSYSRWARLDLNGAPLCGPLCVAVSAAEATVPSEPIWEEQQCEVKADGFLCEFHFPATCRPLAVEPGAAAAAVSITYGTPFAARGADFQALPVGSSAAVAPLGLQLMCTAPPGAVQGHWAREAPGAWDCSVENGGCEHACNAIPGAPRCQCPAGAALQADGRSCTASATQSCNDLCEHFCVPNPDQPGSYSCMCETGYRLAADQHRCEDVDDCILEPSPCPQRCVNTQGGFECHCYPNYDLVDGECVEPVDPCFRANCEYQCQPLNQTSYLCVCAEGFAPIPHEPHRCQLFCNQTACPADCDPNTQASCECPEGYILDDGFICTDIDECENGGFCSGVCHNLPGTFECICGPDSALAGQIGTDCDSGKVDGGDSGAGEPPPSPTPGSTLTPP
notes: Obtained from PAION; also called sTM; recombinant human soluble thrombomodulin

The first test concerns the target thrombin (APC / TAFI activation assays of Examples V, VI and VIII; source not stated for the assay). Description: cell-based or functional assay.
As to B1, the “cofactor activity (APC assay)” value is < 10 % of wild type TME.
Same read-out and setting: next, B2: < 10 % of wild type TME; B3: < 10 % of wild type TME.
The same measure, in the same setting: in the case of B4 it was < 10 % of wild type TME; in that of B5, < 10 % of wild type TME.
Same read-out and setting: next, B6: < 10 % of wild type TME; B7: < 10 % of wild type TME.

A further test has as its target human thrombin (human, UniProt P00734 328-622). Kind of test: equilibrium binding titration in solution; perturbation of DAPA fluorescence (20 nM thrombin, 20 nM DAPA, Solulin titrated), nonlinear regression. As to the method:
The binding of thrombin to thrombomodulin was measured as an equilibrium binding assay. A solution containing thrombin (20 nM), thrombomodulin (1.54 μM), and DAPA (20 nM, dansylarginine N-3-(ethyl-1,5-pentanediyl)amide, a fluorescent, reversible thrombin inhibitor) in 0.02 M Tris-HCl, 0.15 M NaCl, 5.0 mM CaCl₂, 0.01% Tween 80, pH 7.4, was added in small successive aliquots to an otherwise identical solution that lacked thrombomodulin. The additions were performed in a cuvette fitted with a magnetic stirrer in the sample compartment of a Perkin-Elmer model LS50B spectrofluorimeter. Intensity values were continuously recorded with excitation and emission wavelengths of 280 and 545 nm, respectively. A 430-nm cut-off filter was used in the emission beam. The intensity of fluorescence, I, was assumed to be the sum of intensities from thrombin-DAPA (T·D) and thrombin-thrombomodulin-DAPA (T·TM·D). That is, I=i₁·[T·D]+i₂·[T·TM·D], where i₁ and i₂ are the coefficients of fluorescence for T·D and T·TM·D (since excitation was at 280 nm, the emission from free DAPA was negligible).
With B8, the Kd amounted to 23 nM.
